Laboratory results reported in patent publication US20210139581A1 (Alector, published 2021).

B1: AB-64.1 huIgG1 (antibody)
heavy: not shown
light: DIVLTQSPDSLAVSLGERATINCRASQSVSTSTYSYMHWYQQKPGQPPKLLIKYASNLESGVPDRFSGSGSGTDFTLTISSLQAEDVAVYYCQHSWEIPLTFGQGTKLEIKRTVAAPSVFIFPPSDEQLKSGTASVVCLLNNFYPREAKVQWKVDNALQSGNSQESVTEQDSKDSTYSLSSTLTLSKADYEKHKVYACEVTHQGLSSPVTKSFNRGEC
B2: AB-64.1 huIgG2 (antibody)
heavy: QVQLVQSGAEVKKPGASVKISCKASGYTFTDYNLHWVRQAPGQGLEWIGFIYPSNGITGYAQKFQGRATLTVDNSTSTAYMELSSLRSEDTAVYYCARSDVDYFDYWGQGTLLTVSSASTKGPSVFPLAPCSRSTSESTAALGCLVKDYFPEPVTVSWNSGALTSGVHTFPAVLQSSGLYSLSSVVTVPSSNFGTQTYTCNVDHKPSNTKVDKTVERKCCVECPPCPAPPVAGPSVFLFPPKPKDTLMISRTPEVTCVVVDVSHEDPEVQFNWYVDGVEVHNAKTKPREEQFNSTFRVVSVLTVVHQDWLNGKEYKCKVSNKGLPAPIEKTISKTKGQPREPQVYTLPPSREEMTKNQVSLTCLVKGFYPSDIAVEWESNGQPENNYKTTPPMLDSDGSFFLYSKLTVDKSRWQQGNVFSCSVMHEALHNHYTQKSLSLSPGK
light: DIVLTQSPDSLAVSLGERATINCRASQSVSTSTYSYMHWYQQKPGQPPKLLIKYASNLESGVPDRFSGSGSGTDFTLTISSLQAEDVAVYYCQHSWEIPLTFGQGTKLEIKRTVAAPSVFIFPPSDEQLKSGTASVVCLLNNFYPREAKVQWKVDNALQSGNSQESVTEQDSKDSTYSLSSTLTLSKADYEKHKVYACEVTHQGLSSPVTKSFNRGEC
B3: AB-64.1 huIgG1 LALAPS (antibody)
heavy: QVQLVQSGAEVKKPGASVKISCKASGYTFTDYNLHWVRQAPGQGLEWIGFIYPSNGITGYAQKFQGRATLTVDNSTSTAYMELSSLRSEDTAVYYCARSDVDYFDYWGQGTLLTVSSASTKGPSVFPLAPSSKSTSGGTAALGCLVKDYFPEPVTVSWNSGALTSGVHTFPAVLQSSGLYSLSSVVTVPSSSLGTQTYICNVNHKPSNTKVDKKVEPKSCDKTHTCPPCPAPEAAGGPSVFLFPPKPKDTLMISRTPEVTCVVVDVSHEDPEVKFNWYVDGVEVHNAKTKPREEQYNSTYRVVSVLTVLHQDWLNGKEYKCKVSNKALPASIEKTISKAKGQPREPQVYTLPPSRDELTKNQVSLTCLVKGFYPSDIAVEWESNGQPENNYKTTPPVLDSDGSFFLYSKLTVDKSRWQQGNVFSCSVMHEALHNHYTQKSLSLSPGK
light: DIVLTQSPDSLAVSLGERATINCRASQSVSTSTYSYMHWYQQKPGQPPKLLIKYASNLESGVPDRFSGSGSGTDFTLTISSLQAEDVAVYYCQHSWEIPLTFGQGTKLEIKRTVAAPSVFIFPPSDEQLKSGTASVVCLLNNFYPREAKVQWKVDNALQSGNSQESVTEQDSKDSTYSLSSTLTLSKADYEKHKVYACEVTHQGLSSPVTKSFNRGEC
B4: AB-64.1.3 (antibody, V domains shown)
VH: QVQLVQSGAEVKKPGASVKISCKASGYTFTDYNLHWVRQAPGQGLEWIGFIYPSNVITGYAQKFQGRATLTVDNSTSTAYMELSSLRSEDTAVYYCARSDVDYFDYWGQGTLLTVSS
VL: DIVLTQSPDSLAVSLGERATINCRASQSVSTSTYSYMHWYQQKPGQPPKLLIKYASNLESGVPDRFSGSGSGTDFTLTISSLQAEDVAVYYCQHSWEIPLTFGQGTKLEIK
notes: Variant of AB-64.1
B5: AB-64.1 huIgG1 SELF (antibody, V domains shown)
VH: QVQLVQSGAEVKKPGASVKISCKASGYTFTDYNLHWVRQAPGQGLEWIGFIYPSNGITGYAQKFQGRATLTVDNSTSTAYMELSSLRSEDTAVYYCARSDVDYFDYWGQGTLLTVSS
VL: DIVLTQSPDSLAVSLGERATINCRASQSVSTSTYSYMHWYQQKPGQPPKLLIKYASNLESGVPDRFSGSGSGTDFTLTISSLQAEDVAVYYCQHSWEIPLTFGQGTKLEIK
B6: AB-64.1 huIgG1 N297A (antibody, V domains shown)
VH: QVQLVQSGAEVKKPGASVKISCKASGYTFTDYNLHWVRQAPGQGLEWIGFIYPSNGITGYAQKFQGRATLTVDNSTSTAYMELSSLRSEDTAVYYCARSDVDYFDYWGQGTLLTVSS
VL: DIVLTQSPDSLAVSLGERATINCRASQSVSTSTYSYMHWYQQKPGQPPKLLIKYASNLESGVPDRFSGSGSGTDFTLTISSLQAEDVAVYYCQHSWEIPLTFGQGTKLEIK
B7: AB-64.1.10 (antibody, V domains shown)
VH: QVQLVQSGAEVKKPGASVKISCKASGYTFTDYNLHWVRQAPGQGLEWIGFIYPSNRITGYAQKFQGRATLTVDTSTSTAYMELSSLRSEDTAVYYCARSDVDYFDYWGQGTLLTVSS
VL: DIVLTQSPDSLAVSLGERATINCRASQSVSTSTYSYMHWYQQKPGQPPKLLIKYASNLESGVPDRFSGSGSGTDFTLTISSLQAEDVAVYYCQHSWEIPLTFGQGTKLEIK
notes: Variant of AB-64.1
B8: AB-64.1.6 (antibody, V domains shown)
VH: QVQLVQSGAEVKKPGASVKISCKASGYTFTDYNLHWVRQAPGQGLEWIGFIYPSNGITGYAQKFQGRATLTVDNSASTAYMELSSLRSEDTAVYYCARSDVDYFDYWGQGTLLTVSS
VL: DIVLTQSPDSLAVSLGERATINCRASQSVSTSTYSYMHWYQQKPGQPPKLLIKYASNLESGVPDRFSGSGSGTDFTLTISSLQAEDVAVYYCQHSWEIPLTFGQGTKLEIK
notes: Variant of AB-64.1
B9: AB-64.1.11 (antibody, V domains shown)
VH: QVQLVQSGAEVKKPGASVKISCKASGYTFTDYNLHWVRQAPGQGLEWIGFIYPSNRITGYAQKFQGRATLTVDQSTSTAYMELSSLRSEDTAVYYCARSDVDYFDYWGQGTLLTVSS
VL: DIVLTQSPDSLAVSLGERATINCRASQSVSTSTYSYMHWYQQKPGQPPKLLIKYASNLESGVPDRFSGSGSGTDFTLTISSLQAEDVAVYYCQHSWEIPLTFGQGTKLEIK
notes: Variant of AB-64.1
B10: AB-64.1.5 (antibody, V domains shown)
VH: QVQLVQSGAEVKKPGASVKISCKASGYTFTDYNLHWVRQAPGQGLEWIGFIYPSNGITGYAQKFQGRATLTVDQSTSTAYMELSSLRSEDTAVYYCARSDVDYFDYWGQGTLLTVSS
VL: DIVLTQSPDSLAVSLGERATINCRASQSVSTSTYSYMHWYQQKPGQPPKLLIKYASNLESGVPDRFSGSGSGTDFTLTISSLQAEDVAVYYCQHSWEIPLTFGQGTKLEIK
notes: Variant of AB-64.1
B11: AB-64.1.9 (antibody, V domains shown)
VH: QVQLVQSGAEVKKPGASVKISCKASGYTFTDYNLHWVRQAPGQGLEWIGFIYPSNQITGYAQKFQGRATLTVDNPTSTAYMELSSLRSEDTAVYYCARSDVDYFDYWGQGTLLTVSS
VL: DIVLTQSPDSLAVSLGERATINCRASQSVSTSTYSYMHWYQQKPGQPPKLLIKYASNLESGVPDRFSGSGSGTDFTLTISSLQAEDVAVYYCQHSWEIPLTFGQGTKLEIK
notes: Variant of AB-64.1
B12: AB-64.1.12 (antibody, V domains shown)
VH: QVQLVQSGAEVKKPGASVKISCKASGYTFTDYNLHWVRQAPGQGLEWIGFIYPSNRITGYAQKFQGRATLTVDNSASTAYMELSSLRSEDTAVYYCARSDVDYFDYWGQGTLLTVSS
VL: DIVLTQSPDSLAVSLGERATINCRASQSVSTSTYSYMHWYQQKPGQPPKLLIKYASNLESGVPDRFSGSGSGTDFTLTISSLQAEDVAVYYCQHSWEIPLTFGQGTKLEIK
notes: Variant of AB-64.1
B13: AB-64.1.7 (antibody, V domains shown)
VH: QVQLVQSGAEVKKPGASVKISCKASGYTFTDYNLHWVRQAPGQGLEWIGFIYPSNGITGYAQKFQGRATLTVDNPTSTAYMELSSLRSEDTAVYYCARSDVDYFDYWGQGTLLTVSS
VL: DIVLTQSPDSLAVSLGERATINCRASQSVSTSTYSYMHWYQQKPGQPPKLLIKYASNLESGVPDRFSGSGSGTDFTLTISSLQAEDVAVYYCQHSWEIPLTFGQGTKLEIK
notes: Variant of AB-64.1
B14: AB-64.1.14 (antibody, V domains shown)
VH: QVQLVQSGAEVKKPGASVKISCKASGYTFTDYNLHWVRQAPGQGLEWIGFIYPSNVITGYAQKFQGRATLTVDQSTSTAYMELSSLRSEDTAVYYCARSDVDYFDYWGQGTLLTVSS
VL: DIVLTQSPDSLAVSLGERATINCRASQSVSTSTYSYMHWYQQKPGQPPKLLIKYASNLESGVPDRFSGSGSGTDFTLTISSLQAEDVAVYYCQHSWEIPLTFGQGTKLEIK
notes: Variant of AB-64.1
B15: AB-64.1.13 (antibody, V domains shown)
VH: QVQLVQSGAEVKKPGASVKISCKASGYTFTDYNLHWVRQAPGQGLEWIGFIYPSNVITGYAQKFQGRATLTVDTSTSTAYMELSSLRSEDTAVYYCARSDVDYFDYWGQGTLLTVSS
VL: DIVLTQSPDSLAVSLGERATINCRASQSVSTSTYSYMHWYQQKPGQPPKLLIKYASNLESGVPDRFSGSGSGTDFTLTISSLQAEDVAVYYCQHSWEIPLTFGQGTKLEIK
notes: Variant of AB-64.1
B16: AB-64.1.15 (antibody, V domains shown)
VH: QVQLVQSGAEVKKPGASVKISCKASGYTFTDYNLHWVRQAPGQGLEWIGFIYPSNVITGYAQKFQGRATLTVDNSASTAYMELSSLRSEDTAVYYCARSDVDYFDYWGQGTLLTVSS
VL: DIVLTQSPDSLAVSLGERATINCRASQSVSTSTYSYMHWYQQKPGQPPKLLIKYASNLESGVPDRFSGSGSGTDFTLTISSLQAEDVAVYYCQHSWEIPLTFGQGTKLEIK
notes: Variant of AB-64.1

Experiments:
[1] = biological target: T1, human CD33 on primary human monocyte-derived dendritic cells (human, UniProt P20138 18-364); test: cell-based or functional assay
T1 sequence (P20138 18-364): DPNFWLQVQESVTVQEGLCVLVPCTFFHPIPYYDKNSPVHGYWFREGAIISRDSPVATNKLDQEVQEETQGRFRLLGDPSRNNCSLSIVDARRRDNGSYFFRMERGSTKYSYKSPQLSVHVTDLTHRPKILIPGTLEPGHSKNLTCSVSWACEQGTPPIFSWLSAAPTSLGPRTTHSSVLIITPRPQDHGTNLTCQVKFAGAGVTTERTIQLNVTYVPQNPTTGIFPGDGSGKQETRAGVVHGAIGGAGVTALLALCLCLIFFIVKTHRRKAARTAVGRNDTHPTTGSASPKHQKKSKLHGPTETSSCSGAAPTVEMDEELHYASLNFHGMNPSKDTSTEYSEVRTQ

human CD33 = biological target: T2, human CD33 (human, UniProt P20138 18-259, limits assumed); test: BLI (ForteBio), Fab 100 nM on immobilized CD33
T2 construct: Human CD33 immobilized on the BLI sensor tip or the BIAcore C1 chip; also called Siglec-3
T2 sequence (P20138 18-259 limits assumed): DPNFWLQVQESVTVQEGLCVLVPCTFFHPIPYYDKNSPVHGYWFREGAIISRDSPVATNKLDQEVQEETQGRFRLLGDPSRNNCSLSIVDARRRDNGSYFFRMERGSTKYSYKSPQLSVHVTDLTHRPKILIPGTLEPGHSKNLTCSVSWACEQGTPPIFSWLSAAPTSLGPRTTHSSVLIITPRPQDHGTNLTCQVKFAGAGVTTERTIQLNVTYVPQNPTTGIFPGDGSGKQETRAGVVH
Protocol: The affinities (KD) of the humanized antibodies for human CD33 were measured for each antibody by BioLayer Interferometry in a ForteBio assay according to standard techniques (Estep et al. (2013) MAbs 5(2): 270-8). […] The assay was carried out at room temperature.
The affinity parameters of two of the antibodies, 64.1.2 and 64.1.8, were measured in a separate experiment by BIAcore, where they were directly compared to the parental antibody, AB-64.1, the parental humanized antibody, AB-H64, and the Chimeric Ab.

[2] = biological target: T1, human CD33 on primary human …; test: cell-based or functional assay; remark: listed apart in the source

Row | Binder | Maximal Downregulation (% CD33 remaining) [1] [%] | Receptor downregulation (pM, EC50) [1] [pM] | Kd (human CD33) [nM] | Receptor downregulation (% remaining at 0.16 µg/mL antibody) [2] [%]
1 | B1 | 17.5 | 36.2 |  | 
2 | B2 | 15.1 | 35.6 |  | 
3 | B3 | 39.4 | 57.1 |  | 
4 | B4 |  |  | 0.647 | 38.5
5 | B5 | 10.9 | 31.9 |  | 
6 | B6 | 41.3 | 29.3 |  | 
7 | B7 |  |  | 1.45 | 39.8
8 | B8 |  |  | 0.836 | 37
9 | B9 |  |  | 1.15 | 38.6
10 | B10 |  |  | 0.697 | 37.3
11 | B11 |  |  | 1.06 | 37.4
12 | B12 |  |  | 0.922 | 38.5
13 | B13 |  |  | 0.391 | 35.9
14 | B14 |  |  | 0.743 | 38.4
15 | B15 |  |  | 1.45 | 35.9
16 | B16 |  |  | 0.412 | 38.9
